Reference: patent publication US20100120063A1, “GPCR Arrestin Assays” (DISCOVERX CORPORATION, priority 2008, published 2010)

Key:
OPRM1-PK and PROKR2 = target: T1, OPRM1-PK and PROKR2 (Homo sapiens, UniProt Q8NFJ6); assay: Transactivation assay, U2OS cells co-expressing OPRM1-PK and PROKR2 (FIG. 14C); type: cell-based
T1 construct: expressed in transfected cells; host or cells: U2OS
Experimental: (§1) For all assays, 10,000 cells per well were seeded in 20 μL media and incubated overnight in 1% Fetal Bovine Serum and appropriate basal media (F-12 or DMEM). For agonist assays, 5 μL compound was added to cells and incubated at Room Temp. […] Arrestin-EA complex formation with the GPCR was detected with 50% (v/v) of PathHunter Detection Reagent (Dx 93-0001, PathHunter reagents are available from DiscoveRx, Corp., Fremont, Calif.) (Lysis buffer active ingredient 2% CHAPS, Emerald II and Galacton star are from Applied Biosystems.) Data was read on Packard Victor 2 or PerkinElmer ViewLux readers and analyzed using GraphPad Prism 4.

OPRM1-PK = target: T2, OPRM1-PK (Homo sapiens, UniProt P35372); assay: Arrestin-EA EFC agonist assay, U2OS cells expressing OPRM1-PK only; type: cell-based; conditions: U2OS OPRM1-PK only
T2 construct: PK (beta-galactosidase ED); expressed in transfected cells; host or cells: U2OS
T2 sequence (P35372 whole entry): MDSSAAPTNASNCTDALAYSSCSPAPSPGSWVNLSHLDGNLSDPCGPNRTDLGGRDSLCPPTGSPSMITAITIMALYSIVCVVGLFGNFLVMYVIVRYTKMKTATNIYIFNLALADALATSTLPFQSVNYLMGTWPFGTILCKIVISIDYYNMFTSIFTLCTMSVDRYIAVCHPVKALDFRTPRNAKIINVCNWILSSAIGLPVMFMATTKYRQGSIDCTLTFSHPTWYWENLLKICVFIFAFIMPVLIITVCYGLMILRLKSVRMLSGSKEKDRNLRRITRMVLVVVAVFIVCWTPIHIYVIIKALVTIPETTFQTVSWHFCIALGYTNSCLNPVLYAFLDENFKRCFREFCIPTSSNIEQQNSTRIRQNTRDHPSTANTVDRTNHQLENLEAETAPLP
Experimental: as §1

T1 sequence (Q8NFJ6 whole entry, species assumed): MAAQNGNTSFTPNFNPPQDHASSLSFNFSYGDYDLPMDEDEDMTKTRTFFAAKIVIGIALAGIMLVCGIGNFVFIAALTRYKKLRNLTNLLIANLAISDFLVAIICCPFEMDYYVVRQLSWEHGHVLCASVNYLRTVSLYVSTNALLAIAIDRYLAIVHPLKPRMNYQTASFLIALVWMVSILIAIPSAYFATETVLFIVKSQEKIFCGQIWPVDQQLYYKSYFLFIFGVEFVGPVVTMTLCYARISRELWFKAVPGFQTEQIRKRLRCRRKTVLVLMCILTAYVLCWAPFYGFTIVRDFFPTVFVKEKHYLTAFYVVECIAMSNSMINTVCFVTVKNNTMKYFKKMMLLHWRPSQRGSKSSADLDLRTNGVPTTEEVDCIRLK

B1: EG-VEGF: PROKR2 ligand, EG-VEGF/prokineticin (protein)
chain: AVITGACERDVQCGAGTCCAISLWLRGLRMCTPLGREGEECHPGSHKVPFFRKRKHHTCPCLPNLLCSRFPDGRYRCSMDLKNINF
For B1, the EC50 (OPRM1-PK and PROKR2; FIG. 14C) was 52.2 nM, the HILLSLOPE (OPRM1-PK and PROKR2; FIG. 14C) was 1.328 and the “transactivation response” value (OPRM1-PK and PROKR2; OPRM1-PK and PROKR2 coexpressed) was “weak response”. The BOTTOM (OPRM1-PK and PROKR2; curve fit, signal, FIG. 14C) was 294.3, the TOP (OPRM1-PK and PROKR2; curve fit, signal, FIG. 14C) was 9875 and the LOGEC50 (OPRM1-PK and PROKR2; log of EC50, negative sign as printed, FIG. 14C) was −7.282. It also gave an EC50 (OPRM1-PK) of 32.1 nM, an HILLSLOPE (OPRM1-PK) of 1.011 and a BOTTOM (OPRM1-PK; curve fit, signal) of 25.82. The TOP (OPRM1-PK; curve fit, signal) was 57.34 and the LOGEC50 (OPRM1-PK; log of EC50, negative sign as printed) was −7.493.
